This note sets out measurements from patent publication US20200277392A1 (Hoffmann-La Roche, published 2020).

Experiment [1] concerns the target T1, human TnC on cells (human, UniProt P24821 23-2201).
T1 construct: Endogenous on U87-MG cells (low or intermediate level) and stably transfected in CT26 cells (CT26huTnC, high level); also called cell surface human TnC; TnC on U87-MG cells
Briefly: flow cytometry on CT26huTnC cells. For orientation: Flow cytometry measures light scatter and fluorescence of single cells or particles in a stream.

The target of experiment [2] is T1, human TnC on cells. Put plainly: flow cytometry on U87-MG cells.
Method: Cells were then stained for 60 to 120 minutes at 4° C. in the dark in 50 4/well 4° C.
For discrimination of live and dead cells two methods were used. […] Alternatively, cells were washed once with DPBS and were incubated for 15 minutes at dark/4° C. at a cell concentration of 1×10⁶ cell/mL in DPBS containing Zombie Aqua™ Viability Dye [1:800 dilution]. Cells were subsequently washed once with DPBS to remove excess dye before primary antigen binding molecules were added to the cells and the cells were incubated as described above.
For a further experiment, the target named is T2, human OX40 on cells (human, UniProt P43489 29-277).
T2 construct: also called CD134; OX40+ Cells
T2 sequence: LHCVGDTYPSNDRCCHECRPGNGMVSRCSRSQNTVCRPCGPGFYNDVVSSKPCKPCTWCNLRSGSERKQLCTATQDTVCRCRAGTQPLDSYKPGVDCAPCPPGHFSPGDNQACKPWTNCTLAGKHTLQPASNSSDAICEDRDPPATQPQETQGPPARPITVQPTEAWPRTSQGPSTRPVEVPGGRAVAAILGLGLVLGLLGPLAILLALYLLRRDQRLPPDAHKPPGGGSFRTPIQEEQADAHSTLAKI
Briefly: flow cytometry on activated human PBMC, gated on CD4+ T cells; FITC anti-human IgG secondary; MFI baseline corrected. How it is done: For labeling, cells were harvested, washed with pre-warmed (37° C.) DPBS and adjusted to a cell density of 1×10⁷ cells/mL in DPBS. eFluor670 cell proliferation dye (eBioscience, Cat.-No. 65-0840-85) was added to the suspension of naïve human PBMC at a final concentration of […] and a final cell density of 0.5×10⁷ cells/mL in DPBS. Cells were then incubated for 10 min at room temperature in the dark. To stop the labeling reaction, 4 mL heat inactivated FBS was added and cells were washed three times with T cell medium. A 2:1 mixture of 1×10⁵ resting eFluor670 labeled human PBMC and 0.5×10⁵ unlabeled activated human PBMC were then added to each well of round-bottomed suspension cell 96-well plates (Greiner bio-one, cellstar, Cat. No. 650185).
Cells were stained for 120 minutes at 4° C. in the dark in 50 μL/well 4° C. FACS buffer containing different amounts of the indicated antigen binding molecules. After three washes with 4° C. FACS buffer, cells were stained for 45 minutes at 4° C. in the dark in 25 μL/well 4° C. FACS buffer containing a mixture of fluorescently labeled anti-human CD4 (clone RPA-T4, mouse IgG1 k, BioLegend, Cat.-No. 300532), anti-human CD8 (clone RPa-T8, mouse IgGlk, BioLegend, Cat.-No. 3010441) and Fluorescein isothiocyanate (FITC)-conjugated AffiniPure anti-human IgG Fcγ-fragment-specific goat IgG F(ab′)₂ fragment (Jackson ImmunoResearch, Cat.-No. 109-096-098). […]

The target of experiment [3] is T3, GST huTnC fn5 A1234 fn6 B (human, biotinylated at the C-terminal Avi-tag).
T3 chain: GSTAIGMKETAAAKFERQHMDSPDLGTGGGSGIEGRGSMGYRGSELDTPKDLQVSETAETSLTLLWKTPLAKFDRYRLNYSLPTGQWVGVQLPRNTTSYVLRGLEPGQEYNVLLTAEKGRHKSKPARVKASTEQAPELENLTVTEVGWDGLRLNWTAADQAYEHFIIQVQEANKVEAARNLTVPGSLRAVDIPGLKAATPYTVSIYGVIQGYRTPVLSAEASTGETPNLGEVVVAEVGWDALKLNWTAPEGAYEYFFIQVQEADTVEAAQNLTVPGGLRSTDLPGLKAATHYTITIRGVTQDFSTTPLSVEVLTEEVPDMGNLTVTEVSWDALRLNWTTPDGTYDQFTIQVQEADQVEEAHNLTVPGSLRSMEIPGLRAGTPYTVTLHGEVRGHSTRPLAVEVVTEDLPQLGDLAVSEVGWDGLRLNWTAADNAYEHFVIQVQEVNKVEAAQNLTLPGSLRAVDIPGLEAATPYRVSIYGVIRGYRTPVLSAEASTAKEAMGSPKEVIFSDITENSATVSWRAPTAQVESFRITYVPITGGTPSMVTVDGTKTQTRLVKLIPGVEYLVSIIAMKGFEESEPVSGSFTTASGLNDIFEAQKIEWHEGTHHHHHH
Put plainly: SPR ProteOn XPR36, biotinylated antigen captured on NLC chip, purified Fab as analyte, 1:1 Langmuir. How it is done: (§1) Immobilization of antigens (ligand): Recombinant antigens were diluted with PBST (10 mM phosphate, 150 mM sodium chloride pH 7.4, 0.005% Tween 20) to 10 μg/ml, then injected at 30 μl/minute in vertical orientation. Injection of analytes: For ‘one-shot kinetics’ measurements, injection direction was changed to horizontal orientation, two-fold dilution series of purified Fab were injected simultaneously along separate channels 1-5, with association times of 200 s, and dissociation times of 240 s, respectively. Buffer (PBST) was injected along the sixth channel to provide an “in-line” blank for referencing. Association rate constants (kₒₙ) and dissociation rate constants (koff) were calculated using a simple one-to-one Langmuir binding model in ProteOn Manager v3.1 software by simultaneously fitting the association and dissociation sensorgrams. The equilibrium dissociation constant (KD) was calculated as the ratio koff/kₒₙ.

The target of the next experiment is T4, huTnC A1 B (human, biotinylated at the C-terminal Avi-tag).
T4 chain: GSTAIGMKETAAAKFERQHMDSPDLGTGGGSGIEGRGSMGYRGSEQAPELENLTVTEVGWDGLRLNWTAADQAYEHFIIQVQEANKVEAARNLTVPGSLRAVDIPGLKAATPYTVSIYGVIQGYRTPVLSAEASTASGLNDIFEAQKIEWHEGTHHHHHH
The experiment is described as above. How it is done:
as §1

For experiment [4], the target named is T5, GST huTnC fn5 A1234 BC fn6 B (human, UniProt P24821 984-1798, biotinylated at the C-terminal Avi-tag).
T5 construct: also called Human GST-fused TnC fn5 A1234 BC fn6
T5 sequence: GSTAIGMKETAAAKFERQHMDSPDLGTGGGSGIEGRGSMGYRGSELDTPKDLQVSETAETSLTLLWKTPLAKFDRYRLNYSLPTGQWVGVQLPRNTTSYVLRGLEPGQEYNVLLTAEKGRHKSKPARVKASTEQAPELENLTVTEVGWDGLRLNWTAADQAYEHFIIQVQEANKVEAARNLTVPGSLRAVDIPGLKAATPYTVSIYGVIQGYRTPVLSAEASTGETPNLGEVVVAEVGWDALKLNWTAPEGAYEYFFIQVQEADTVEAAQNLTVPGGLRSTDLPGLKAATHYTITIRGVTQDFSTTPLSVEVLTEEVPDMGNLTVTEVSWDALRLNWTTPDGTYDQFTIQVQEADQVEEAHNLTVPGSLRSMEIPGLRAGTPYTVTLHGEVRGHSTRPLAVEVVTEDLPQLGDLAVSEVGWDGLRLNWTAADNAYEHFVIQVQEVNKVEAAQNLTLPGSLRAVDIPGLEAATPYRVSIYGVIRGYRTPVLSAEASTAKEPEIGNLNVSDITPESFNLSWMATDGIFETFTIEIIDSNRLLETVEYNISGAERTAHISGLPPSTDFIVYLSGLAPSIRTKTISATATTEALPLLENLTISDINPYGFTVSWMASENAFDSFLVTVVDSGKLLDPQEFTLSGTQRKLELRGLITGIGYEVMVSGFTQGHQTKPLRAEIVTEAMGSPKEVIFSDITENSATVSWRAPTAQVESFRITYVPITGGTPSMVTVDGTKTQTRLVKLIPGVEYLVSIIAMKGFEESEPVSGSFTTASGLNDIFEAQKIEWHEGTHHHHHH
The description is as above. The procedure:
as §1

In experiment [5] the target is T6, GST huTnC fn5 mu A124 BC hu fn6 B (human fn5 and fn6, murine A124 BC).
T6 chain: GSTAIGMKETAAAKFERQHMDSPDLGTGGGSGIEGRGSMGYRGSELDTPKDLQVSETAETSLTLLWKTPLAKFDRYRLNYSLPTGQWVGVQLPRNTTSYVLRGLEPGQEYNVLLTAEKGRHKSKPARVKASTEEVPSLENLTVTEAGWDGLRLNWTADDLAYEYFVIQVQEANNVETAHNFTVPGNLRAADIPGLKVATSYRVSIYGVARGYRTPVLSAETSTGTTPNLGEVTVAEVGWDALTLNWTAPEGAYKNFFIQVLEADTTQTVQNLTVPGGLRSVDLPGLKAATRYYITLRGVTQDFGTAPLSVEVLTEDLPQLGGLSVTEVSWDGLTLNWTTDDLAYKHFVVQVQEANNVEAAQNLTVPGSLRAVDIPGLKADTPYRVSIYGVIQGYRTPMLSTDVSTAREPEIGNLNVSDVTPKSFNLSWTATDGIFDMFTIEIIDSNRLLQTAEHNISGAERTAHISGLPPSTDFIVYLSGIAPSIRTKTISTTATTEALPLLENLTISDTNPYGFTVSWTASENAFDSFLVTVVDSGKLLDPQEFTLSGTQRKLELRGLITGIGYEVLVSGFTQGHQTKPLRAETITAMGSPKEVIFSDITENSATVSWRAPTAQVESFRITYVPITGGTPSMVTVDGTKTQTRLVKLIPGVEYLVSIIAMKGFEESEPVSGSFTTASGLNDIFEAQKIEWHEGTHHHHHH
The experiment is described as above. The procedure: as §1

The target in a further experiment is T7, huTnC A4 B (human, biotinylated at the C-terminal Avi-tag).
T7 chain: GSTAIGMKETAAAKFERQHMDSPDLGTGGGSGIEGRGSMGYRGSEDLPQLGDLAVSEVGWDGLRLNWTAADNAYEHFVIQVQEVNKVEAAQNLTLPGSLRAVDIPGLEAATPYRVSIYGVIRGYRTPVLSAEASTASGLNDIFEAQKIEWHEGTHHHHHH
The experiment is described as above. How it is done: as §1

In a further experiment the target is T8, GST TnC hu fn5 B-C fn6 B (human, biotinylated at the C-terminal Avi-tag).
T8 chain: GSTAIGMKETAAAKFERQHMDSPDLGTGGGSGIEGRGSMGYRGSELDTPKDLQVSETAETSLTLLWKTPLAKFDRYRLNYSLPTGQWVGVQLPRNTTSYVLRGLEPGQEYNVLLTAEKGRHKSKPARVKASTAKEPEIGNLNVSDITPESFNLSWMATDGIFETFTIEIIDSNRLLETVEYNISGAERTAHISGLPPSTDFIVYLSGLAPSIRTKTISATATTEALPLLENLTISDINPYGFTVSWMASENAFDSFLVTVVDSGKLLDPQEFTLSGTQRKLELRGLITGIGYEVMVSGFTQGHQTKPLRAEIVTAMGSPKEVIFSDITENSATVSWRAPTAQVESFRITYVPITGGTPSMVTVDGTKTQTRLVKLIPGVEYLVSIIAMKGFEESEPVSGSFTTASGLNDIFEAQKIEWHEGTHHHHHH
Described as above. How it is done: as §1

T1 sequence (P24821 23-2201 limits assumed): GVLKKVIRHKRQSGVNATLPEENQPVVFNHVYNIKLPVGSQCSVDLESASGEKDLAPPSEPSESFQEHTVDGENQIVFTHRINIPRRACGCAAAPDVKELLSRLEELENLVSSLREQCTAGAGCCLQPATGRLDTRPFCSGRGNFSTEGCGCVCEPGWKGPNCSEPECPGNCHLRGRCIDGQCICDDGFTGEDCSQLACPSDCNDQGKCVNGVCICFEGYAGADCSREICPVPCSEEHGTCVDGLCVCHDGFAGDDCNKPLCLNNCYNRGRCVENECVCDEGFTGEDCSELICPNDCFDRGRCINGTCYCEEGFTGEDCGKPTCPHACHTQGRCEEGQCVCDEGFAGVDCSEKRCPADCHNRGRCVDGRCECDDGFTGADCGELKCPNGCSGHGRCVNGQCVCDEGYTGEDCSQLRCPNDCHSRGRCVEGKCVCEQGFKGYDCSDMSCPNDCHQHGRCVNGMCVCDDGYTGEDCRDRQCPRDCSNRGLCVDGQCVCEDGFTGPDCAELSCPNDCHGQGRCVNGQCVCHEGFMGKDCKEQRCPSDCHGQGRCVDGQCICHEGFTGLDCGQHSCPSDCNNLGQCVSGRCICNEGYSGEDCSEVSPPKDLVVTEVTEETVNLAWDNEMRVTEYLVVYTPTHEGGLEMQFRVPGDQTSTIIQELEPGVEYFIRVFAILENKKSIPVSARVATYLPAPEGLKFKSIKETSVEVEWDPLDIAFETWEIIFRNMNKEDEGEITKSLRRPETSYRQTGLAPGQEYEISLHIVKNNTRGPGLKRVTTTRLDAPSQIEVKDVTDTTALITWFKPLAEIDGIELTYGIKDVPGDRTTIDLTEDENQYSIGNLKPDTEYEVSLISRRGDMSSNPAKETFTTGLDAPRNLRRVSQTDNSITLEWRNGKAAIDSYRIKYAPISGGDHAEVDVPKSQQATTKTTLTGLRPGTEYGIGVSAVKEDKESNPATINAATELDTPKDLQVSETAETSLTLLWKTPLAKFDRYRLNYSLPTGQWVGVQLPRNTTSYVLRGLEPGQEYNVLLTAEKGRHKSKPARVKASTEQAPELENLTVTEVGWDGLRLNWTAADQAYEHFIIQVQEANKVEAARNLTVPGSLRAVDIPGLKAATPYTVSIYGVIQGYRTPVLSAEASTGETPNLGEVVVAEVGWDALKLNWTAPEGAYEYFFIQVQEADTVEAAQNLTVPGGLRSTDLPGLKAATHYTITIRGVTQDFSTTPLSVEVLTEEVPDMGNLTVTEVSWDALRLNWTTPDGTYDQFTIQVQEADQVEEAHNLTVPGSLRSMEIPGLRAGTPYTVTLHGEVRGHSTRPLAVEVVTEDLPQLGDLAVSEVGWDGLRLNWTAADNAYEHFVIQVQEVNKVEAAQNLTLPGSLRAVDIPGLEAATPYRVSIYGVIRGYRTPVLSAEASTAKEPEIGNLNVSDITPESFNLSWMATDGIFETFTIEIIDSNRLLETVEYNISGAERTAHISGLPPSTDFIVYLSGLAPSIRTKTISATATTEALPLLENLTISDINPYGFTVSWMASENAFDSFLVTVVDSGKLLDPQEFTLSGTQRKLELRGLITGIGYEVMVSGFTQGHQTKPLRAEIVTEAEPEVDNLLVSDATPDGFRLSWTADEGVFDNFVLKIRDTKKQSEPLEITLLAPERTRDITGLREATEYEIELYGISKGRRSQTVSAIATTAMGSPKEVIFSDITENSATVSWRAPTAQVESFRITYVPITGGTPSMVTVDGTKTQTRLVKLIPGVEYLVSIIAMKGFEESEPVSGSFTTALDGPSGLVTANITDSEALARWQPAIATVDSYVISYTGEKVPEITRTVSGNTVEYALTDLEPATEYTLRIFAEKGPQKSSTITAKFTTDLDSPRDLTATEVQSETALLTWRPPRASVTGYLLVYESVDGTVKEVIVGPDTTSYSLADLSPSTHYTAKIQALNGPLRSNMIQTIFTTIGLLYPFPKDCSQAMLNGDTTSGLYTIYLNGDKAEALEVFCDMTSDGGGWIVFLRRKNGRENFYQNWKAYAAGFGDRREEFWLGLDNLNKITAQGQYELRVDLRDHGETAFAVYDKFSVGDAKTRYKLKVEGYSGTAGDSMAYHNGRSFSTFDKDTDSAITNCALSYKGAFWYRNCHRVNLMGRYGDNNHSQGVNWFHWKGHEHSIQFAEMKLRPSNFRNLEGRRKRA

B1: parental bivalent anti-TnC antibody clone18D4 (antibody, V domains shown)
VH: QVQLVQSGAEVKKPGSSVKVSCKASGGTFSSYAISWVRQAPGQGLEWMGGIIPIFGTANYAQKFQGRVTITADKSTSTAYMELSSLRSEDTAVYYCAKGNFYGGLDYWGQGTTVTVSS
VL: DIQMTQSPSTLSASVGDRVTITCRASQSISSWLAWYQQKPGKAPKLLIYDASSLESGVPSRFSGSGSGTEFTLTISSLQPDDFATYYCQQNKKFPSGTFGQGTKVEIK
notes: Human IgG1; also called αTnC (18D4); anti-TnC 18D4 IgG
As a reminder, the EC50 is the concentration that produces a half-maximal response. Read a high EC50 as a less potent agent. Regarding B1, the EC50 was found to be 2.69 nM in the experiment with human TnC on cells [1] and 8.21 nM with human TnC on cells [2]. Moreover, the binding result in the experiment with human OX40 on cells is “no binding (tested: 100 nM)”.

B2: anti-TnC clone 18D4, purified Fab (Fab, V domains shown)
VH: QVQLVQSGAEVKKPGSSVKVSCKASGGTFSSYAISWVRQAPGQGLEWMGGIIPIFGTANYAQKFQGRVTITADKSTSTAYMELSSLRSEDTAVYYCAKGNFYGGLDYWGQGTTVTVSS
VL: DIQMTQSPSTLSASVGDRVTITCRASQSISSWLAWYQQKPGKAPKLLIYDASSLESGVPSRFSGSGSGTEFTLTISSLQPDDFATYYCQQNKKFPSGTFGQGTKVEIK
The term Kd denotes a measure of binding affinity in units of concentration. As to B2, the Kd was found to be 5 nM in experiment [3]; 5.6 nM in the experiment with huTnC A1 B; 4 nM in [4]; 11.2 nM in experiment [5]; 2 nM with huTnC A4 B.

B3: anti-TnC clone 11C7, purified Fab (Fab, V domains shown)
VH: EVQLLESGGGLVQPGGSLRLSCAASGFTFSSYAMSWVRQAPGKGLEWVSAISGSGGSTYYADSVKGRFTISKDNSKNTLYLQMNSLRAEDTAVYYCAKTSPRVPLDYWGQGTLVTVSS
VL: SSELTQDPAVSVALGQTVRVTCQGDSLRSYYASWYQQKPGQAPVLVIYGKNNRPSGIPDRFSGSSSGNTASLTITGAQAEDEADYYCNSINSTRNEVFGGGTKLTVL
Regarding B3, the figures for the Kd (in experiment [4]; in [5]; in the experiment with GST TnC hu fn5 B-C fn6 B) were 2.3 nM, 1.9 nM and 1 nM, respectively.
